Laboratory results reported in patent US20260167699A1 (Chugai, published 2026).

B1: GpH7-A5/GpH7-B3 variant Q295_03V/GpL16-k0 (antibody, human IgG1, kappa)
heavy 1: not shown
heavy 2: not shown
light: DIVMTQSPLSLPVTPGEPASISCQASESLVHSNRNTYLHWYLQKPGQSPQLLIYKVSNRFSGVPDRFSGSGSGTDFTLKISRVEAEDVGVYYCSQNTHVPPTFGQGTKVEIERTVAAPSVFIFPPSDEQLKSGTASVVCLLNNFYPREAKVQWKVDNALQSGNSQESVTEQDSKDSTYSLSSTLTLSKADYEKHKVYACEVTHQGLSSPVTKSFNRGEC
notes: copies: 1 + 1 + 2
B2: GpH7-A5/GpH7-B3 variant S267_02A/GpL16-k0 (antibody, human IgG1, kappa)
heavy 1: not shown
heavy 2: not shown
light: B1 light
notes: copies: 1 + 1 + 2
B3: GpH7-A5/GpH7-B3 variant S324_04F/GpL16-k0 (antibody, human IgG1, kappa)
heavy 1: not shown
heavy 2: not shown
light: B1 light
notes: copies: 1 + 1 + 2
B4: GpH7-A5/GpH7-B3 variant Q295_10E/GpL16-k0 (antibody, human IgG1, kappa)
heavy 1: not shown
heavy 2: not shown
light: B1 light
notes: copies: 1 + 1 + 2
B5: GpH7-A5/GpH7-B3 variant S267_01G/GpL16-k0 (antibody, human IgG1, kappa)
heavy 1: not shown
heavy 2: not shown
light: B1 light
notes: copies: 1 + 1 + 2
B6: GpH7-A5/GpH7-B3 variant Q295_14T/GpL16-k0 (antibody, human IgG1, kappa)
heavy 1: not shown
heavy 2: not shown
light: B1 light
notes: copies: 1 + 1 + 2
B7: GpH7-A5/GpH7-B3 variant S239_06M/GpL16-k0 (antibody, human IgG1, kappa)
heavy 1: not shown
heavy 2: not shown
light: B1 light
notes: copies: 1 + 1 + 2
B8: GpH7-A5/GpH7-B3 variant Q295_04F/GpL16-k0 (antibody, human IgG1, kappa)
heavy 1: not shown
heavy 2: not shown
light: B1 light
notes: copies: 1 + 1 + 2
B9: GpH7-A5/GpH7-B3 variant S298_11K/GpL16-k0 (antibody, human IgG1, kappa)
heavy 1: not shown
heavy 2: not shown
light: B1 light
notes: copies: 1 + 1 + 2
B10: GpH7-A5/GpH7-B3 variant S298_06M/GpL16-k0 (antibody, human IgG1, kappa)
heavy 1: not shown
heavy 2: not shown
light: B1 light
notes: copies: 1 + 1 + 2
B11: GpH7-A5/GpH7-B3 variant S324_07I/GpL16-k0 (antibody, human IgG1, kappa)
heavy 1: not shown
heavy 2: not shown
light: B1 light
notes: copies: 1 + 1 + 2
B12: GpH7-A5/GpH7-B3 variant Q295_16H/GpL16-k0 (antibody, human IgG1, kappa)
heavy 1: not shown
heavy 2: not shown
light: B1 light
notes: copies: 1 + 1 + 2
B13: GpH7-A5/GpH7-B3 variant S239_14T/GpL16-k0 (antibody, human IgG1, kappa)
heavy 1: not shown
heavy 2: not shown
light: B1 light
notes: copies: 1 + 1 + 2
B14: GpH7-A5/GpH7-B3 variant S324_01G/GpL16-k0 (antibody, human IgG1, kappa)
heavy 1: not shown
heavy 2: not shown
light: B1 light
notes: copies: 1 + 1 + 2
B15: GpH7-A5/GpH7-B3 variant S324_05P/GpL16-k0 (antibody, human IgG1, kappa)
heavy 1: not shown
heavy 2: not shown
light: B1 light
notes: copies: 1 + 1 + 2
B16: GpH7-A5/GpH7-B3 variant Q295_13S/GpL16-k0 (antibody, human IgG1, kappa)
heavy 1: not shown
heavy 2: not shown
light: B1 light
notes: copies: 1 + 1 + 2
B17: GpH7-A5/GpH7-B3 variant S298_08L/GpL16-k0 (antibody, human IgG1, kappa)
heavy 1: not shown
heavy 2: not shown
light: B1 light
notes: copies: 1 + 1 + 2
B18: GpH7-A5/GpH7-B3 variant Q295_07I/GpL16-k0 (antibody, human IgG1, kappa)
heavy 1: not shown
heavy 2: not shown
light: B1 light
notes: copies: 1 + 1 + 2
B19: GpH7-A5/GpH7-B3 variant Q295_18N/GpL16-k0 (antibody, human IgG1, kappa)
heavy 1: not shown
heavy 2: not shown
light: B1 light
notes: copies: 1 + 1 + 2
B20: GpH7-A5/GpH7-B3 variant S324_12R/GpL16-k0 (antibody, human IgG1, kappa)
heavy 1: not shown
heavy 2: not shown
light: B1 light
notes: copies: 1 + 1 + 2
B21: GpH7-A5/GpH7-B3 variant S239_01G/GpL16-k0 (antibody, human IgG1, kappa)
heavy 1: not shown
heavy 2: not shown
light: B1 light
notes: copies: 1 + 1 + 2
B22: GpH7-A5/GpH7-B3 variant S324_08L/GpL16-k0 (antibody, human IgG1, kappa)
heavy 1: not shown
heavy 2: not shown
light: B1 light
notes: copies: 1 + 1 + 2
B23: GpH7-A5/GpH7-B3 variant S298_15Y/GpL16-k0 (antibody, human IgG1, kappa)
heavy 1: not shown
heavy 2: not shown
light: B1 light
notes: copies: 1 + 1 + 2
B24: GpH7-A5/GpH7-B3 variant S239_18N/GpL16-k0 (antibody, human IgG1, kappa)
heavy 1: not shown
heavy 2: not shown
light: B1 light
notes: copies: 1 + 1 + 2
B25: GpH7-A5/GpH7-B3 variant S239_07I/GpL16-k0 (antibody, human IgG1, kappa)
heavy 1: not shown
heavy 2: not shown
light: B1 light
notes: copies: 1 + 1 + 2
B26: GpH7-A5/GpH7-B3 variant S324_06M/GpL16-k0 (antibody, human IgG1, kappa)
heavy 1: not shown
heavy 2: not shown
light: B1 light
notes: copies: 1 + 1 + 2
B27: GpH7-A5/GpH7-B3 variant S239_02A/GpL16-k0 (antibody, human IgG1, kappa)
heavy 1: not shown
heavy 2: not shown
light: B1 light
notes: copies: 1 + 1 + 2
B28: GpH7-A5/GpH7-B3 variant S298_03V/GpL16-k0 (antibody, human IgG1, kappa)
heavy 1: not shown
heavy 2: not shown
light: B1 light
notes: copies: 1 + 1 + 2
B29: GpH7-A5/GpH7-B3 variant S267_10E/GpL16-k0 (antibody, human IgG1, kappa)
heavy 1: not shown
heavy 2: not shown
light: B1 light
notes: copies: 1 + 1 + 2
B30: GpH7-A5/GpH7-B3 variant S267_18N/GpL16-k0 (antibody, human IgG1, kappa)
heavy 1: not shown
heavy 2: not shown
light: B1 light
notes: copies: 1 + 1 + 2

Target: T1, FcγRIIIa (human, UniProt P08637 17-208)
T1 construct: extracellular domain; also called 3a; FcγRIIIa extracellular domain
T1 sequence (P08637 other isoform, or with tags, fused parts or gaps): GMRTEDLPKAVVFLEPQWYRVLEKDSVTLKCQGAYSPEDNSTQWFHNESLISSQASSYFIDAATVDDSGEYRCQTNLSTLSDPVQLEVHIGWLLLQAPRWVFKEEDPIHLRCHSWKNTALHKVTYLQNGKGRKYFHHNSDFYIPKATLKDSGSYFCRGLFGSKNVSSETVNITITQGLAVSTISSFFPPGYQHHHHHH
Test: SPR (Biacore);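 further: antibody variants captured on an SPR sensor chip, with FcγRIIIa passed over as analyte in HBS-EP+ buffer at 25 °C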

He/Con 3a | Binder
86.2 % of GpH7-A5/GpH7-B3/GpL16-k0 | B1
149 % of GpH7-A5/GpH7-B3/GpL16-k0 | B2
99.3 % of GpH7-A5/GpH7-B3/GpL16-k0 | B3
105 % of GpH7-A5/GpH7-B3/GpL16-k0 | B4
53.3 % of GpH7-A5/GpH7-B3/GpL16-k0 | B5
120 % of GpH7-A5/GpH7-B3/GpL16-k0 | B6
73.9 % of GpH7-A5/GpH7-B3/GpL16-k0 | B7
75.1 % of GpH7-A5/GpH7-B3/GpL16-k0 | B8
50 % of GpH7-A5/GpH7-B3/GpL16-k0 | B9
87.2 % of GpH7-A5/GpH7-B3/GpL16-k0 | B10
101 % of GpH7-A5/GpH7-B3/GpL16-k0 | B11
80.2 % of GpH7-A5/GpH7-B3/GpL16-k0 | B12
93 % of GpH7-A5/GpH7-B3/GpL16-k0 | B13
114 % of GpH7-A5/GpH7-B3/GpL16-k0 | B14
72.3 % of GpH7-A5/GpH7-B3/GpL16-k0 | B15
90.4 % of GpH7-A5/GpH7-B3/GpL16-k0 | B16
69.2 % of GpH7-A5/GpH7-B3/GpL16-k0 | B17
101 % of GpH7-A5/GpH7-B3/GpL16-k0 | B18
85.7 % of GpH7-A5/GpH7-B3/GpL16-k0 | B19
98.1 % of GpH7-A5/GpH7-B3/GpL16-k0 | B20
72 % of GpH7-A5/GpH7-B3/GpL16-k0 | B21
95.5 % of GpH7-A5/GpH7-B3/GpL16-k0 | B22
80.6 % of GpH7-A5/GpH7-B3/GpL16-k0 | B23
104 % of GpH7-A5/GpH7-B3/GpL16-k0 | B24
75 % of GpH7-A5/GpH7-B3/GpL16-k0 | B25
124 % of GpH7-A5/GpH7-B3/GpL16-k0 | B26
70.9 % of GpH7-A5/GpH7-B3/GpL16-k0 | B27
103 % of GpH7-A5/GpH7-B3/GpL16-k0 | B28
90.9 % of GpH7-A5/GpH7-B3/GpL16-k0 | B29
52 % of GpH7-A5/GpH7-B3/GpL16-k0 | B30
